Reference: patent US20250263441A1 (Metanovas Biotech Inc., priority 2024, published 2025)
In brackets after ≈: the same amount, converted by molar mass. Several values for one entry are separate records, joined by “and”; a condition that tells them apart may be missing. Equal entries are not always repeated.

Experiments:
Assay type in all cases: cell-based
[1] = system: Mouse macrophage RAW264.7 cells; assay: NO concentration after treatment of LPS-stimulated RAW264.7 cells; settings: Dexamethasone positive control; LPS 10 ng/ml, 24 hours; replicate experiments
Experimental: (§1) (1) Mouse macrophage RAW264.7 cells were cultured in DMEM supplemented with 10% fetal bovine serum (FBS) and 1% penicillin and streptomycin (P/S) at 37° C. in a 5% CO2 incubator.
(§2) (2) 5×10^4 mouse-derived RAW264.7 macrophages were placed in 12-well cell culture plates and cultured for 24 hours. Then, 20 μL of PBS (negative control), Dexamethasone (positive control), and the test peptide were added to the wells for incubation for 2 hours. Afterward, 10 ng/ml of lipopolysaccharide (LPS) was mixed with RAW264.7 cells and incubated for 24 hours.
(§3) (3) The supernatant was collected, and NO and IL-6/IL-1ß expression levels were measured using a commercial kit.

[2] = system: Mouse macrophage RAW264.7 cells; assay: IL-6 and IL-1β protein concentration in LPS-stimulated RAW264.7 cells (ELISA); settings: Dexamethasone positive control; LPS 10 ng/ml, 24 hours; repeated experiments
Experimental: as §1, §2, §3
2. After treating RAW264.7 cells with peptide AMP-33, an ELISA kit was used to detect the concentration of IL-6 and IL-1β proteins.

[3] = system: Escherichia coli; assay: Minimum inhibitory concentration on Escherichia coli (liquid culture); settings: for Minimum inhibitory concentration on Escherichia coli: 37° C., 24 to 48 hours
Experimental: (§4) Primary screening of liquid culture: the peptides in Examples 1 to 2 were dissolved in pure water to a concentration of 100 μg/mL. Using a micropipette, 10 μL of the peptides were added to a new 96-well plate in order from left to right, starting from the second compartment. Positive and negative controls were established for use. The 96-well plates were arranged vertically, and the peptide concentrations in the control groups were the same as those of the antimicrobial peptides. The control groups included: pure water and bacteria, antimicrobial peptide FK13 and bacteria, antimicrobial peptide HPA3NT3 and bacteria, and ciprofloxacin and bacteria. An aseptic medium was used.
(§5) If a 96-deep-well plate was used to culture bacteria, an additional 100 μL of sterile medium was added to all wells.
(§6) E. coli was inoculated in LB medium with normal oxygen concentration (21%) for 48 hours. E. coli clones were picked and incubated in LB medium at 37° C. with normal oxygen concentration (21%) for an additional 48 hours. The bacterial concentration was measured and diluted to 107 CFU/mL with culture medium for use.
(§7) The prepared fresh bacterial suspension was diluted to 105 CFU/mL and added to the 96-well plate with 90 μL of the bacterial suspension per well. The plate was incubated at 37° C. with a normal oxygen concentration for 24 to 48 hours (Propionibacterium acnes was cultured anaerobically at 37° C. for 24 to 48 hours in an anaerobic bag). The absorbance at 630 nm was measured using a microplate reader, and the degree of turbidity was observed by the naked eye.
(§8) (iv) Repetition of Operations: The Operations in (iii) were Repeated Twice, and the Decision to Perform a Third Repetition was Based on the Reproducibility of the Experiment.

[4] = system: Staphylococcus aureus; assay: Minimum inhibitory concentration on Staphylococcus aureus (liquid culture); settings: for Minimum inhibitory concentration on Staphylococcus aureus: 37° C., 24 to 48 hours
Experimental: as §4, §5
Staphylococcus aureus was inoculated in LB medium with a normal oxygen concentration (21%) for 48 hours. Staphylococcus aureus clones were picked and incubated in LB medium at 37° C. with a normal oxygen concentration (21%) for an additional 48 hours. The bacterial concentration was measured and diluted to 107 CFU/mL with culture medium for use.
as §7, §8

[5] = system: Propionibacterium acnes; assay: Minimum inhibitory concentration on Propionibacterium acnes (liquid culture); settings: for Minimum inhibitory concentration on Propionibacterium acnes: anaerobic, 37° C., 24 to 48 hours
Experimental: as §4, §5
Propionibacterium acnes was inoculated on an anaerobic blood agar plate, placed in an anaerobic bag, and incubated anaerobically at 37° C. for 48 hours. Propionibacterium acnes clones were then picked and incubated anaerobically in liquid anaerobic broth medium at 37° C. for an additional 48 hours. The bacterial concentration was measured and diluted to 107 CFU/mL with culture medium.
as §7, §8

[6] = system: Candida albicans; assay: Minimum inhibitory concentration on Candida albicans (liquid culture); settings: 37° C., 24 to 48 hours
Experimental: Primary screening of liquid culture: the peptides in Examples 1 to 2 were dissolved in pure water to a concentration of 100 μg/mL. Using a micropipette, 10 μL of the peptides were added to a new 96-well plate in order from left to right, starting from the second compartment. Positive and negative controls were established for use. The 96-well plates were arranged vertically, and the peptide concentrations of the control groups were the same as those of the antimicrobial peptide. The control groups consisted of: pure water and bacteria, antimicrobial peptide FK13 and bacteria, and antimicrobial peptide HPA3NT3 and bacteria. An aseptic medium was used. The amino acid sequence of FK13 is […] (SEQ ID NO: 5), and the amino acid sequence of HPA3NT3 is […] (SEQ ID NO: 6).
as §5
as §6, with “Candida albicans was” for “E. coli was”, “for” for “for an additional”
The prepared fresh bacterial suspension was diluted to 105 CFU/mL and added to the 96-well plate with 90 μL of the bacterial suspension per well, and incubated at 37° C. with normal oxygen concentration for 24 to 48 hours. The absorbance at 630 nm was measured with a microplate reader, and the degree of turbidity was observed by the naked eye.
as §8

[7] = system: rabbit blood erythrocytes; assay: Measurement of hemolytic concentration; settings: for Hemolysis rate: 37° C., 1 hour, replicate wells; for Minimum hemolytic concentration: rabbit erythrocytes
Experimental: 4 mL of 2% rabbit blood erythrocytes were washed twice with 4 mL PBS and centrifuged at 3000 rpm for 5 minutes. The supernatant was discarded, and the rabbit blood erythrocytes were resuspended in 4 mL PBS. 160 μg of the peptides from Examples 1 to 2, FK13, and HPA3NT3 were independently dissolved in 1 mL PBS buffer to prepare the peptide mother solutions with a concentration of 160 μg/mL. Subsequently, the peptide mother solutions were diluted with PBS buffer to concentrations of 80 μg/mL, 64 μg/mL, 32 μg/mL, 16 μg/mL, and 8 μg/mL. 100 μL of the 2% rabbit blood erythrocytes and 100 μL of different concentrations of peptides (80 μg/mL, 64 μg/mL, 32 μg/mL, 16 μg/mL, 8 μg/mL) were added to each well of a 96-well plate. In the negative control, 100 μL of PBS buffer was added, while in the positive control, 100 μL of 0.1% (w/v) Triton X-100 was added. Three replicate wells were set up for each group and incubated at 37° C. for 1 hour. The 96-well plate was then removed, centrifuged at 3000 rpm for 5 minutes, and 100 μL of supernatant was aspirated and transferred to a new 96-well plate. The absorbance was measured at 540 nm using an enzyme meter. Hemolysis rate (%)=((Absorbancesample−Absorbancenegative)/(Absorbancepositive−Absorbancenegative))*100%.

[8] = system: HaCat (human immortalized epidermal cells) cells; assay: Cytotoxic assay (CCK-8) in HaCat cells; settings: 60 hours
Experimental: Preparation of Cell Suspension: HaCat (human immortalized epidermal cells) cells were counted and inoculated into 96-well plates. 100 μL of cell suspension was added to each well, corresponding to a density of 5×10^4 cells per well, with three replicates for each sample. The cells were cultured in a 37° C. incubator for 4 hours until they were attached to the plate. Peptides from the examples, as well as FK13 and HPA3NT3, were then added at concentrations of 80 μg/mL, 32 μg/mL, and 8 μg/mL. The cells were incubated at 37° C. for 60 hours. Afterward, 10 μL of CCK-8 solution was added, and the cells were cultured for an additional 2 hours. The absorbance of the peptides at 450 nm was measured using a dual-wavelength detector, with a detection wavelength of 450-490 nm and a reference wavelength of 600-650 nm.

Compound	NO concentration [1]	IL-1β protein concentration [2]	IL-6 protein concentration [2]	MIC ([3]; Escherichia coli, read-out: Minimum inhibitory concentration on Escherichia coli) [µg/mL]	MIC ([4]; Staphylococcus aureus, read-out: Minimum inhibitory concentration on Staphylococcus aureus) [µg/mL]	MIC ([5]; Cutibacterium acnes, read-out: Minimum inhibitory concentration on Propionibacterium acnes) [µg/mL]	Minimum inhibitory concentration on Candida albicans [6] [µg/mL]	Minimum inhibitory concentration on Escherichia coli [3] [µg/mL]	Minimum inhibitory concentration on Staphylococcus aureus [4] [µg/mL]	Minimum inhibitory concentration on Propionibacterium acnes [5] [µg/mL]	Hemolysis rate ([7]; 8 μg/mL)	Hemolysis rate ([7]; 16 μg/mL)	Hemolysis rate ([7]; 32 μg/mL)	Hemolysis rate ([7]; 64 μg/mL)	Hemolysis rate ([7]; 80 μg/mL)	Minimum hemolytic concentration [7] [µg/mL]	Maximum cytotoxicity-free concentration [8] [µg/mL]
C[C@@H]1C[C@H]2[C@@H]3CCC4=CC(=O)C=C[C@]4(C)[C@@]3(F)[C@@H](O)C[C@]2(C)[C@@]1(O)C(=O)CO [Dexamethasone, reference compound]	6.80 µM and 6.06 µM and 3.43 µM	75.1 pg/mL and 44 pg/mL	14.2 pg/mL and 23.9 pg/mL														
O=C(O)c1cn(C2CC2)c2cc(N3CCNCC3)c(F)cc2c1=O [ciprofloxacin]				0.25 (≈ 0.754 µM)	0.25 (≈ 0.754 µM)	0.25 (≈ 0.754 µM)											
Example 1: GIFKKITGKLFKWIK (designated as AMP5)							25	50	50	8	14.6% and −0.9% and 2.8%	5.9% and 1.8% and 80.0%	62% and 2.8% and −1.9%	3.7% and −1.0% and 3.8%	14.6% and −0.9% and 2.8%	3.7	80
FK13: antimicrobial peptide FK13, FPLTWLKWWKWKKK [reference compound]							25	50	4	4	3.9% and 7.2% and 5.9%	3.4% and 2.5% and 0.4%	2.5% and 3.1% and 5.0%	5.3% and 2.5% and 2.7%	27.0% and 21.5% and 27.4%	64.0	80
HPA3NT3: antimicrobial peptide HPA3NT3, FKRLKKLFKKKKIWNWK [reference compound]							50	25	4	2	2.4% and 6.2% and 4.7%	23% and −0.2% and 0.4%	2.7% and 1.4% and 7.8%	21.4% and −0.8% and 0.6%	9.7% and 8.5% and 13.7%	64.0	32
